Assay results taken from the RNAGym collection of RNA variant scans (doi:10.1073/pnas.2313332121).

B1: TPR t1 (parent)
chain: GACCAAUCUGCCCUCAGAGCUCGAGAACAUCUUCGGAUGCAGAGGAGGCAGGCUUCGGUGGCGCGAUAGCGCCAACGUCCUCAACCUCCAAUGCAUCCCACCACAUGAUGAUGCCUGAAGAGCCUUGGUUUUUUG

Variants of: B1
Assay: polymerase ribozyme fitness, log enrichment relative to wild type (log ratio); higher = more active; in vitro selection for triplet polymerase activity
In short: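 Fitness is a logarithmic measure of how a genotype enriched relative to the wild type, with replicate averages weighted by inverse variance. The logarithm uses base 2, and enrichment came from Illumina sequencing of input and output libraries. Those libraries were PCR-built, transcribed mutants of each subunit of a heterodimeric triplet polymerase ribozyme, passed through one triplicate in vitro selection round that included frozen incubation at −7 °C, gel excision of extended constructs and streptavidin-bead capture. Genotypes were kept only if they had ≥10 input reads and ≥1 read per output.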

Row | Variant | polymerase ribozyme fitness (log ratio)
1 | C97U G110U A111G | -3.06
2 | U106C U131C U132A | -1.1
3 | U92A U109G | -5.94
4 | C94U A95G | -0.3
5 | C94U A95C | -1.19
6 | U92A U106C C114A | -4.09
7 | G93C U112G | -0.938
8 | U92G C97U G110U | -5.82
9 | C99G G110C | -7.23
10 | U92G C123A | -2.78
11 | G107A C114A | -4.24
12 | A90U G117U | -3.37
13 | U96A G110U | -2.56
14 | C94A C115U | -2.44
15 | U92G C101A | -4.03
16 | A90U G93A U112C | -0.194
17 | A100U G110U | -2.67
18 | C97U C101U U116G A118G | -4.15
19 | A103U C124G | -3.17
20 | G107A A119G | -4.92
21 | C101U A121G | 1.57
22 | U106A U125A | -0.469
23 | A95C U109A | -7.08
24 | G107A U109A A119G | -4.55

Row | Variant | polymerase ribozyme fitness (log ratio)
25 | G93U U96G C124A | 0.232
26 | C102A G128A | -4.69
27 | C101G G120A G122C | -2.36
28 | C98A C99A | -6.47
29 | C97U G120U U130C | -0.251
30 | C99A A121G | -4.75
31 | U92A C123A | -3.22
32 | U92A C123G | -0.636
33 | A95C C97U | -2.11
34 | C102U C124U | -0.914
35 | C98A G120C | -4.15
36 | C98U G135C | -0.757
37 | G93C G110U G120A | -3.34
38 | A91G U106G A111G | -3.06
39 | A90U U112G | -3.12
40 | A100U G128A | -2.05
41 | A95U G120A | -0.385
42 | G93A C104A G113C | -4.27
43 | C101U U129A | -1.62
44 | C94U U116C G128U | -3.48
45 | U106C U112A | 0.973
46 | U106G C114U | -1.86
47 | C94U G128U | -1.7
48 | C94U G113U | -2.09

Row | Variant | polymerase ribozyme fitness (log ratio)
49 | U92A A111G | -3.82
50 | A91G U112A G127C | -1.56
51 | C99G U112C U133A | -6.59
52 | C104A G120A | -0.701
53 | C99U A118G | -2.48
54 | G93A C98U C124G | 0.653
55 | U106C U116G | -2.03
56 | G107U A119U A121C | -3.29
57 | C99A C124U | -4.66
58 | G93C C123G | -0.285
59 | C94A C123U | 0.185
60 | C104A C114G G127C | -6.1
61 | G93A G117C | -3.87
62 | C104A A111U | -3.1
63 | U96A U106A | -0.585
64 | G93A A95G | -1.81
65 | U92A U116C | -3.44
66 | G107A G120C | -3.25
67 | C94A A111U | -0.728
68 | A105C G113U | -4.85
69 | C104A G110A | -3.18
70 | G93C U109A G117U G120C | -6.83
71 | C97A C124A | -2.9
72 | G93U U112G | -1.63

Row | Variant | polymerase ribozyme fitness (log ratio)
73 | U96G A100U C104U | -0.962
74 | A103G G110U | -3.83
75 | A103G G110A | -5.82
76 | A103G C114U | -3
77 | U96A G128U | -1.89
78 | U96A G113A C115A G120C | -3.71
79 | G93U U133A | -0.793
80 | A90U G110U | -3.55
81 | C102U C104A U130C | -0.457
82 | A105G C124U | -0.654
83 | C101U U129G U130C | 0.135
84 | C98U U106G U133G | -2.9
85 | A95G U112C C124U | 1.01
86 | A95C G107A | -7.02
87 | C102U A118G | -1.73
88 | C94A A105U A121C | -2.21
89 | A105U G120U | -2.54
90 | U96C C123G G127C | -0.432
91 | G93C C102A U116G | -5.28
92 | A91G U125A | -0.619
93 | C99G A121U | -6.54
94 | U109A G110A | -4.3
95 | C94U C104U | -0.577
96 | G107C G120C U130A | -4.61

Row | Variant | polymerase ribozyme fitness (log ratio)
97 | G93A G117C U130G | -5.98
98 | C101U C115U C124U | -0.886
99 | C101A G120C | -0.0201
100 | G93A C114A A118C | -3.7
101 | C94G U131G U132G | -1.88
102 | C104A U125G | -2.44
103 | A100C G120A G122A | -1.28
104 | C94G C101U | -1.46
105 | G93A C123A | 0.264
106 | A95C G113C C124G | -1.76
107 | U106A G120C U130G | 0.744
108 | U96A C99G G110C | -6.97
109 | G107A A111U | -5.27
110 | U106C G117C | -3.72
111 | U106C G117A | -3.23
112 | C104U U133C | 0.657
113 | U109A U129A | -6.83
114 | C97A C104A | -5.08
115 | U109C A121U | -3.68
116 | C102U G122U | -1.26
117 | C99U U131C | -2.72
118 | C99U U131G | -3.59
119 | C102G A111C A118C U129C | -5.54
120 | A91G A100C A111U A121G | -3.81

Row | Variant | polymerase ribozyme fitness (log ratio)
121 | G93U G120A U125A | 0.0882
122 | C102U G113A U129A | -3.17
123 | U96A A121C U126A | -0.501
124 | C101G C114U | -3.32
125 | G93U G117U | -3.63
126 | U92A C124U | -1.43
127 | C101U U125A | -0.975
128 | U96A C114U | -3.4
129 | C101G C104U | -2.98
130 | U106G C115U | -4.44
131 | C102A G127A | -3.45
132 | A100C G122A | -1.49
133 | U92A G110C | -6.13
134 | U92A G110A | -5.07
135 | A103C U133G | -4.45
136 | C94A G135U | -1.66
137 | U92G U109A C124A U131A | -6.86
138 | C98U C102A A111G A121G G122A | -5.08
139 | A95C U109A U112C | -4.49
140 | A100U G120A G127C U131A | -2.13
141 | A90U C114G G117A | -4.57
142 | C94G U109C A121U | -6.64
143 | C104U G120A | 0.815
144 | A105G G117A | -4.69

Row | Variant | polymerase ribozyme fitness (log ratio)
145 | C104U C123A | 0.201
146 | C94U A108U C114U U131G | -7.59
147 | C104A G135U | -2.01
148 | C98U C124G | -0.72
149 | C104A U112G | -1.47
150 | A100U G113A | -1.88
151 | U106G U125G | -3.81
152 | A91U | -1.81
153 | A91C | -1.4
154 | A91G | -0.586
155 | U109C A111U | -4.13
156 | U106C G113C | -2.72
157 | C104G U112A | -4.8
158 | A103C C104U U116C | -6.48
159 | C99U G122U | -3.2
160 | G93C G117C | -4.74
161 | U96G G127A | -2.63
162 | C102A U109G | -2.56
163 | C102U U130C | -1.87
164 | C101U G128A | -2.16
165 | A100C C123A | -0.801
166 | A108C C124G | -4.87
167 | U92G A108U U112A G113A | -6.92
